The DeepSol protein solubility set

Experiment: soluble on expression in E. coli; label from the status in PepcDB or PDB records

| Sequence | soluble on expression in E. coli |
| --- | --- |
| MSLSKNKYLFKYLIVDRKKLDPSYTYKYDNIQWNHKIIAIGDIHGDVESLKLILRHSNLIDENDEWIAEDVMLVQVGDILDRGVFGTYIYDYLLKLQKDAIKKNSKVILIMGNHEQLNLCGAFHYVNESEVMLFFQNNRNNRLFSFTNKNGYYFKKLIRLPVIVKINNIIFTHGGISKHMSEYDINTINLKTRLQIENKCKMFQFEKYNYLSKEGVLWNNEISHQVKLQPKKTCKHLRNILKKYNAKGLVVGHTRQKSHEIQTYCNNSFFLIDTGMSLFMNNGQPYPNYLQIEKGKFKTVHLIVQEYNRKEGHHHHHH | not soluble |
| MAHHHHHHMYEKTHVTTYPVMGCQISVGTTASRRSKGLNATRSGVDGALTSGTVDGRDPKSTGADNSVSLAYAVPAVKPVTYNDYRGFQVTMVNGTLAKINNICRWLDTALDKREKNGGWCMDVLAESVSSGKMETSFYCESIVQASHHVTHYCGQERANGVEYFAEVHSQQVFEKSAVSRTFDCPSAKFVYNSRFEEIPRQSDITTTQLNKETSDSGIPNGREAMIRYSPTSSEDGGRLNE | not soluble |
| MSLTTELGRVLVTGGAGFVGANLVTTLLDRGHWVRSFDRAPSLLPAHPQLEVLQGDITDADVCAAAVDGIDTIFHTAAIIELMGGASVTDEYRQRSFAVNVGGTENLLHAGQRAGVQRFVYTSSNSVVMGGQNIAGGDETLPYTDRFNDLYTETKVVAERFVLAQNGVDGMLTCAIRPSGIWGNGDQTMFRKLFESVLKGHVKVLVGRKSARLDNSYVHNLIHGFILAAAHLVPDGTAPGQAYFINDAEPINMFEFARPVLEACGQRWPKMRISGPAVRWVMTGWQRLHFRFGFPAPLLEPLAVERLYLDNYFSIAKARRDLGYEPLFTTQQALTECLPYYVSLFEQMKNEARAEKTAATVKEGHHHHHH | soluble |
| MKEYLTNERIRAKQVRVVGPDGKQLGIMDTREALRLAQEMDLDLVLVGPNADPPVARIMDYSKWRYEQQMAEKEARKKAKRTEVKSIKFRVKIDEHDYQTKLGHIKRFLQEGHKVKVTIMFRGREVAHPELGERILNRVTEDLKDLAVVEMKPEMLGRDMNMLLAPVKVSA | soluble |
| SAQDLRMSYCYAKFEGGKCSSPKSRNHSKQECCCALKGEGWGDPCELCPTEPDEAFRQICPYGSGIIVGPDDSA | soluble |
| MNFTRLLNQVLSTVQKKGNTFSDSPLNSFGGGALVAGVASMLLNGKNRKTITKIGSTAALGYLAYRGYQMWQQNKGRATVTQSDFQPAGETEETYSRTVLRTMIAAAASDGMIDEAERRTIEQESGTDPETAAWLAAEYRLPASIEDIAAAVGNDEALAAEAYLAARLVCADLSRKETVFLARLSQALKLDDNLVESLERQLGF | not soluble |
| MSLNATIVDIARRANVTNITVSRTFNQPGLVKQETREKIHAIAKELNYVPNAFAQGLKRSSSQIIGIVTSSMYNPFYSELIQTVSRIARTQCYQIMLFDTDGSEEAEMEAIQALFGYKACGILLSPVRDDKNYQPAYLDLAETYRVPLILIDRDIYNRQLSGVFLNNKEIGLLAGKYLSEQPERKMLIIGGPAESEITRVRIEGIINALENKKNDVHIINGDYDFISQEAAVRDYLSSPQNQPDYIIGLNGILTLGAIAICHELKIYNNIKFFSIDEPPKAADYGLHIAGVYHDTQMLGEIAAELLFNAIKKPHNDQAVRREFFTGSLLTHEGHHHHHH | soluble |
| MGSDKIHHHHHHMNAPDTSLAGASTASTASYDSAADGYNFAYLDEQTKRMLRRALLKAVAVPGYQVPFASREMPLPFGWGTGGIQVTAAIIGRKDTLKVIDQGSDETTNAVNIRRFFARTTGVATTRRTVDATIIQTRHRIPETPLTERQILVYQVPMPEPLFRLEPRVAECRKLHALADYGLISVKLYEDIVHHGSIATTYDYPVIVNHRYLASPSPIPKFDNPKMHMNPALQLFGAGRERRIHAIPPYTPVRSLDFDDHPFEVQKWHHACALCGSTESFLDEMIVDDAGKRMFVCSDSDYCHERRGDADFDPPSRDAGKGEPA | not soluble |
| MSLEEQREILEQLKKTLQMLTVEPSKNNQIANEEKEKKENENSWCILEHNYEDIAQEFIDFIYKNPTTYHVVSFFAELLDKHNFKYLSEKSNWQDSIGEDGGKFYTIRNGTNLSAFILGKNWRAEKGVGVIGSHVDALTVKLKPVSFKDTAEGYGRIAVAPYGGTLNELWLDRDLGIGGRLLYKKKGTNEIKSALVDSTPLPVCRIPSLAPHFGKPAEGPFDKEDQTIPVIGFPSPDEEGNEPPTDDEKKSPLFGKHCIHLLRYVAKLAGVEVSELIQMDLDLFDVQKGTIGGIGKHFLFAPRLDDRLCSFAAMIALICYAKDVDTEESELFSTVTLYDNEEIGSLTRQGAKGGLLESVVERSSSAFTKKAVDLHTVWANSIILSADVNHLYNPNFPEVYLKNHFPVPNVGITLSLDPNGHMATDVVGTALVEELARRNGDKVQYFQIKNNSRSGGTIGPSLASQTGARTIDLGIAQLSMHSIRAATGSKDVGLGVKFFNGFFKHWRSVYDEFGELEGHHHHHH | soluble |
| MALNNVSLSSGDQRSRVAYRSSHGDLRPRASALAMVSGDGFLVSRPEAIHLGPRQAVRPSVRAESRRVDGGGRSPREPDGRGRSRQARFSPYPIPAVEPDLLRSVLQQRLIALGGVIAARISV | soluble |
| MADNPTNLRNADFRKLLTSARSDRPAVSAFAKPADPKTGDDKPASFKHKHLKPAKFKKPQAAAHGKAKKEKTEADEDEAALKNILKNYRDRAAERRKQGDEKEDPSKLTAAYRAVPGDARSAQDQADLRKQAILESKYLGGDLEHTHLVKGLDYSLLNKVRSEIDKSDDDDDDDIDTAFDEKVTSSSSSSKPSEASLLAQELAQSHSENRMVRSLHRVLFKNEVPLHNQLFAKGRMAYVVELEDEETDIPTTLLRSLHDLPRAESAQSIQANNLIILKLSHVLSHLRAEPKKKKKEEFRVQLGSRDAPGAAAAAPGAKGDSIYDDLDDYVPSRKSRDSRDAGRRGSRRDRSRDRSRDRDRDRDRDNRDRYFEKSANSRREEEQNRREQQRERERAEQERRREREKEREQEKAKEREKKRKELEESSGYDECYPGGLVEMGGAWDSDEEADYSKMDAGPKKNQAVNRWDFDTEEEYASYMEGREALPKAAYQYGVKNGEGGRKNKKQSAVSDAKRLDRELNEINKIMDKRKAGGDGAGGGGDYKKPKY | not soluble |
| SDLDYGGVPLWINRFLGEPSVLTLKDRIDPGWYRAVNTQSCPLECDCPIQWPTAIYCDHRGLNQLPSGLPFRLQYLFLQGNNITSLGSRAFDNTTYLRWLILDHNELLSEQLDNVLFSSLTRLVNLFINHNNLTKVPAGLPSGLKQLRLAYNHIEKISEGDFQNLDSLTLILLQGNRLKTIEEGDFKGLGALNLLDLSHNFLDTFPKHLPPSVQQLYLSNNSLTGLSENSLHAFSGLRYLRLGHNKLRNERLDPGAFNLTSLVELDLSYNRLTEIPSVPITLQYLYLEVNHIQEFNVSSFCRTVGPTSYSRMKILRLDGNKLEYHKLPPDWVFCLRVLHNIYI | soluble |
| MGSDKIHHHHHHMPITQTTSAKKSKPIILMTMGQQDRNQHPYQVMTHKYMQPIVEIAGAIPLLMPTCFGIEDVDRYLDMVDGVYLSGAGSNIDPSLYGQENLTPEKSQDVNRDTVDLAIIAGALKRKLPILGICRGMQELNIALGGTLYQKVYSEPGFDDHREDPQTPNHVQYGPRHPIKTVPGSWLAKLIGDKTMVNSLHGQGICTLGKGLEALAYGEDGLIEAIHGPDYGQFILGVQWHPEWQANDNPDSIKLFQAFGSACRGEVSWQSANDAKLTA | not soluble |
| MGSDKIHHHHHHMRDFSSDHSALALNTASLGHNLEGHGAGWTSEQVIDACAERGFGSIVFWRREIGERAVKIGERVRSAGLTVAGLCRTPFLVGTQATDVESVMDDFKRSIDMAAALGAPVLTIVVGGVHPGTKGVAESLKIVADRVAEAAPCAQASGVKLALEPLNPVYAGNRSCLTTLRDAVDLCDRIAAPNVGIAVDVYHVWWDTELERQLKRAGAERIYGYHLCDWLAETNDVLLDRGMMGDGVADLKAIRSFVEGAGYRGPCEVEIFSANDWWKRDPGEVLDVMVERFRNCC | not soluble |
| MGSDKIHHHHHHVSVDDLIDTTSLELLVAPAPLADFLRQSSAMHRHLCPRQVLGARMGMYAGELLGLTLPQKNKRLYTFVETDGCFADGVSVTTGCWLGRRTMRLMDEGKVAATFVDTQTGQAFRIAPRPNVRDLARQYAPNARSRWHAYLIAYQLMPLTDLLIAQPITLTVDLKAIISRNGLRTTCDHCGEEIINAREVIRDGQTLCRTCGGEGYYTITG | not soluble |
| MQRMAKMKAMEKHHGYKVLTMIHRREMISLFGLPAYQSIDEEDAEQVLRWIRKYRDYPLELILHTPGGQLHASIQIARALKNHPKKTRVLIPHYSMSGGTIIALAADEIVMDKDAVIGPIDPQVGDPIRGVFPAPSWIHAAETKKEDADDSTLVMSDISRKALRLTRNVAKELLEGKIQPDGKEDRLEEVVEKLVSGEMIHSTPLSAREAKELGLSVNTDFPEDVHDFMRLFRPVKKTVEYVG | not soluble |
| GHMEDFWVQYGDEMLPVIGDFPRKGDYLPSFMLVDDQKHDAALESFSHTPKLIVTLLSVDEDEHAGLLLLRETRRFLDSWPHLKLIVITVDSPSSLARARHEHGLPNIALLSTLRGRDFHKRYGVLITEYPLSGYTSPAIILADAANVVHYSERLANTRDFFDFDAIEKLLQEGEQQAMAAEREAAEARQEQDAEREKGTERLLEKAKLIQDQLNRNGDPGRGS | soluble |
| RSGVLITDKPKKKDKKEEPAALQTTVQSMLISRPRELEAEVVRFQNNREKWIAFVGLKDGRPYEIFTGIADDDEGIMVPKSVTHGKIIKNRDENGERHYDFQFCNKKGFKVTIEGLDSKFNPEYWNYAKLISGVLRYGMPIEQVVHLVQGMSLNDESINTWKNGVERALKRYLPNGTTLSGQVCPSCGQETLVYQEGCLLCTSCGASKCG | not soluble |
| GFPSPAADYVEQRIDLNQLLIQHPSATYFVKASGDSMIDGGISDGDLLIVDSAITASHGDIVIAAVDGEFTVKKLQLRPTVQLIPMNSAYSPITISSEDTLDVFGVVIHVVKAATR | soluble |
| MSKFPVPLRTIGGLRPSTTAAISAANIGFTQSSRALSTGAAAKSSGLVGQVARQYPNAAAFSIKQVRLYSSGNLPKHNRVALPALSPTMELGTVVSWQKKEGDQLSEGDLLCEIETDKATMGFETPEEGYLAKILIQEGSKDVPIGKLLCIIVDNEADVAAFKDFKDDGASSGGSAPAAEKAPEPAKPAASSQPSPPAQMYQAPSVPKSAPIPHSSSGRVSASPFAKKLAAENGLDLSGVSGSGPGGRILASDLSQAPAKGATSTTTQAVSGQDYTDIPLSNMRKTIAKRLTESKSTIPHYYLTSEIQLDTLLQVREKLNGLLAKGTSGQATKISINDFIIKASALACQRVPEANSYWMDSFIRENHHVDVSVAVSTPAGLITPIIFNAHAKGLATIASEIVELAQRAREGKLQPHEFQGGTFTVSNLGMFGSVSDFTAIINPPQSCILAIGGASDKLVPDEAEGYKKIKTMKVTLSCDHRTVDGAVGAVWLRHFKEFLEKPHTMLL | not soluble |
| MDEEGASVVITIKNEAKNIQKLLDSLFNNDYEHFEVVVVDDMSNDGTEGIVKKYDKVKYIRTRCSRGEGRNIGAMNSSFENILFTDGDAIVSNGWIGGMVSVLNNGFEIAIGKTVYTGKKRYIQDRVKIYFNGIEITAPSVNLAYKKRAFFSLGGFDKRFVTAEDIDLNLRAAMSGFKFGFCNECVVYAKVRDSFISFLKQAFWNGYGRAQLEEKHPGMLKKTDIRLGHNFYDFMHMSAGAAGYLLYKLR | soluble |
| MSLKYSFIAQHKKTWPVGMMCQLMGVTSSGYYSYQKRKSTKTNNEPEHEELLEWVKKISESSKFSYGNRRIRKALNALGYPVGRRKTHRLMREAGIFVRYKKKYKVTTNSNHKQPIFDNVLNRKFQVNEPNRAYVSDMTYIPTHEGWLYLTVVIDLFSRKVVGWNMSSRMKADTVCDALTMAIWQRKPKAGLIVHSDRGSQYASKQYRSLLNQHGLVGSMSKKGDCWDNSVAESFFSRLKDELVHWRNYQTRREAKQDILDYMTMFYNNQRLHSSLDYLSPNQFENRYWGLMKKVAEGHHHHHH | not soluble |
